Measurements taken from article PMC10397247.

T1: O15-bH
T1 chain: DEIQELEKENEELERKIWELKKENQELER

T2: O16-bH
T2 chain: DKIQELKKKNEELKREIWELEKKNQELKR

T3: O2-bH
T3 chain: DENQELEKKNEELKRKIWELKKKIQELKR

T4: O3-bH
T4 chain: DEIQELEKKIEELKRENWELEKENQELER

T5: O4-bH
T5 chain: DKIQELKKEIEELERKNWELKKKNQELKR

T6: O5-bH
T6 chain: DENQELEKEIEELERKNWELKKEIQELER

T7: O6-bH
T7 chain: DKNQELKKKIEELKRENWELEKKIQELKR

T8: O7-bH
T8 chain: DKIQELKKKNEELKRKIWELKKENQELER

T9: O8-bH
T9 chain: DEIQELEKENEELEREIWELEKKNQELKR

T10: O9-bH
T10 chain: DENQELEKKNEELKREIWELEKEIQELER


Key:
Assay in all cases: two-hybrid library CCNG1;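 note: natural log of median RNA to DNA barcode read ratio; higher means stronger binding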
O15-bH = target: T1, O15-bH
O16-bH = target: T2, O16-bH
O2-bH = target: T3, O2-bH
O3-bH = target: T4, O3-bH
O4-bH = target: T5, O4-bH
O5-bH = target: T6, O5-bH
O6-bH = target: T7, O6-bH
O7-bH = target: T8, O7-bH
O8-bH = target: T9, O8-bH
O9-bH = target: T10, O9-bH

Binder | interaction score (O15-bH) | interaction score (O16-bH) | interaction score (O2-bH) | interaction score (O3-bH) | interaction score (O4-bH) | interaction score (O5-bH) | interaction score (O6-bH) | interaction score (O7-bH) | interaction score (O8-bH) | interaction score (O9-bH)
DKNQELKKKIEELKRKNWELKKEIQELER [O13-bH] | 1.51 | -1.44 | -2.29 | 0.496 | -0.471 | 0.194 | -0.527 | -0.211 | 0.569 | -0.0315
DENQELEKEIEELERENWELEKKIQELKR [O14-bH] | 1.43 | 1.45 | -1.83 | -0.0193 | 0.39 | -1.91 | 1.63 | 1.56 | -1.78 | 0.497

Further lines, results first:

interaction score (O15-bH) | interaction score (O16-bH) | interaction score (O2-bH) | interaction score (O3-bH) | interaction score (O4-bH) | interaction score (O5-bH) | interaction score (O6-bH) | interaction score (O7-bH) | interaction score (O8-bH) | interaction score (O9-bH) | Binder
– | 0.441 | -1.39 | 1.41 | 0.0481 | -0.611 | 1.06 | 1.17 | 0.7 | -0.421 | DKIQELKKKNEELKREIWELEKKNQELKR [O16-bH]
0.268 | 1.62 | -0.549 | -0.38 | -1.19 | -1.6 | -0.0351 | 1.73 | 0.416 | -0.267 | DEIQELEKENEELERKIWELKKENQELER [O15-bH]
